Test results as given in US10711246B2, “Methods and compositions for generating epicardium cells” (UNIVERSITY HEALTH NETWORK, priority 2013, dated 2020).
“Also recorded” adds a separate entry of the source.

Key:
hESC-derived mesoderm [1] = assay: qRT-PCR and immunostaining of myocardial and epicardial markers (WT1, TBX18) after treatment of mesoderm; type: cell-based, human; settings: for WT1 expression in BMP4-treated cells: higher concentrations of DKK1 or small molecule antagonists, CHIR
Excerpt: Values are relative to the housekeeping gene TBP. Error bars represent standard deviation from the mean of the values from three independent experiments (N=3); *P≤0.05, **P≤0.01 when compared to no treatment. FIG. 5. […] Error bars represent standard deviation from the mean of the values from three independent experiments (N=3); *P≤0.05, **P≤0.01 when compared to the ‘no Wnt treatment’ (NT) control in context of the indicated manipulation of the BMP pathway. (b) qRT-PCR-based analyses of WT1 expression on day 15 cultures generated from untreated cells (control) or cells treated with either BMP4 (10 ng/ml) or DM (4 μM) in combination with the indicated amounts of DKK or CHIR. Values are relative to the housekeeping gene TBP. Error bars represent standard deviation from the mean of the values from three independent experiments (N=3); *P≤0.05, **P≤0.01 when compared to the ‘no Wnt treatment’ (NT) control in the context of the indicated manipulation of the BMP pathway. (c) Flow cytometry analyses showing percent cTnT+ cells and qRT-PCR analyses for WT1 expression in day 15 cultures generated from untreated cells (control) or cells treated with either BMP4 (10 ng/ml) or DM (4 μM) in combination with the indicated amounts of XAV939 (XAV). Error bars represent standard deviation from the mean of the values from three independent experiments (N=3); *P≤0.05, **P≤0.01 when compared to no Wnt treatment (see FIGS. 9a and 9b) in the context of the specific BMP treatment. (d) Flow cytometry analyses showing percent cTnT+ cells and qRT-PCR analyses of WT1 expression in day 15 cultures generated from untreated cells (control) or cells treated with either BMP4 (10 ng/ml) or DM (4 μM) in combination with the indicated amounts of IWP2. Error bars represent standard deviation from the mean of the values from three independent experiments (N=3); *P≤0.05, **P≤0.01 when compared to no Wnt treatment (see FIGS. 9a and 9b) in the context of the specific BMP treatment. […] As a first approach to identify these cells, we analyzed them for expression of a panel of myocardial and epicardial genes over a 6-15 day time course. […] In vivo, the epicardial cells form an epithelial layer that surrounds the developing heart^18. In addition to their distinct morphology, epithelial cells in culture are characterized by their ability to form tight junctions that can be monitored by the presence of the zona occludins 1 (ZO1) protein.

hESC-derived mesoderm [2] = assay: Cardiomyocyte specification from hESC-derived day 4 mesoderm, cTnT+ cells at day 15 by flow cytometry; type: cell-based, human; settings: for cardiomyocyte development in presence of Wnt and activin/nodal/TGFβ inhibitor: specification step, contracting cTnT/SIRPA cells at day 15; for cardiomyocyte development / specification: added to day 4 mesoderm during specification step, high levels of BMP4 or inhibitors, analysed day 15
Method: FIG. 1. Cardiomyocyte specification from hESCs. Scheme of the protocol used to differentiate hESCs towards the cardiomyocyte lineage highlighting the three main stages of development: 1) mesoderm induction, 2) cardiovascular specification and 3) maturation. Cells from ActivinA/BMP4-induced day 4 embryoid bodies (EBs) are plated as a monolayer on gelatin coated wells. […] Following specification, the cultures were maintained in VEGF for 9 days and then analyzed for the presence of cTnT+ cardiomyocytes by flow cytometry. FIG. 2. […] (a) Flow cytometric analyses showing the presence of the KDR+ and PDGFRα+ populations at day 4 and day 5 and the cTnT+ expression on day 15 of culture following no treatment (control), treatment with BMP4 (10 ng/ml) or the BMP4 inhibitor Noggin (400 ng/ml). (b) Total cell numbers per well at day 15 in the cultures treated as above. Error bars represent standard deviation from the mean from three experiments. FIG. 3. […] Graphical representation of flow cytometry analyses indicating the percent cTnT^+ cells in day 15 cultures generated from populations treated with the indicated amounts of BMP4 or Noggin. NT=no treatment. Bars represent standard deviation from the mean of the values from three independent experiments (N=3); *P≤0.05, **P≤0.01 when compared to no treatment. FIG. 9. […] Error bars represent standard deviation from the mean of the values from three independent experiments (N=3); *P≤0.05, **P≤0.01 when compared to the ‘no Wnt treatment’ (NT) control in context of the indicated manipulation of the BMP pathway. (b) qRT-PCR-based analyses of WT1 expression on day 15 cultures generated from untreated cells (control) or cells treated with either BMP4 (10 ng/ml) or DM (4 μM) in combination with the indicated amounts of DKK or CHIR. Values are relative to the housekeeping gene TBP. Error bars represent standard deviation from the mean of the values from three independent experiments (N=3); *P≤0.05, **P≤0.01 when compared to the ‘no Wnt treatment’ (NT) control in the context of the indicated manipulation of the BMP pathway. (c) Flow cytometry analyses showing percent cTnT+ cells and qRT-PCR analyses for WT1 expression in day 15 cultures generated from untreated cells (control) or cells treated with either BMP4 (10 ng/ml) or DM (4 μM) in combination with the indicated amounts of XAV939 (XAV). Error bars represent standard deviation from the mean of the values from three independent experiments (N=3); *P≤0.05, **P≤0.01 when compared to no Wnt treatment (see FIGS. 9a and 9b) in the context of the specific BMP treatment. (d) Flow cytometry analyses showing percent cTnT+ cells and qRT-PCR analyses of WT1 expression in day 15 cultures generated from untreated cells (control) or cells treated with either BMP4 (10 ng/ml) or DM (4 μM) in combination with the indicated amounts of IWP2. Error bars represent standard deviation from the mean of the values from three independent experiments (N=3); *P≤0.05, **P≤0.01 when compared to no Wnt treatment (see FIGS. 9a and 9b) in the context of the specific BMP treatment. Media consisting of StemPro-34 (Life Technologies) supplemented with […] penicillin/streptomycin, 2 mM L-glutamine, 1 mM ascorbic acid, and 4 3 10_4 M monothioglycerol (MTG) (Sigma). […] The Activin/Nodal/TGF-b and BMP inhibition experiments were carried out with SB-431542 (Tocris, Ellisville, Mo.) and dorsomorphin (Sigma), respectively. For experiments involving Wnt signaling, CHIR-99021 (Stemgent), XAV-939 (R&D), or IWP2(R&D) were used at the indicated concentrations. Cultures were maintained in a 5% CO2, 5% O2, 90% N2 environment for the first 10-12 days and were then transferred into a 5% CO2 air environment for the remainder of the culture period.

[3] = titration during specification step, FIG. 3
[4] = qRT-PCR, 6-15 day time course, cells from treated mesoderm

## Oc1nc(-c2ccc(C(F)(F)F)cc2)nc2c1CSCC2 [XAV939, reference compound]
hESC-derived mesoderm [1]; qRT-PCR day 15
  WT1 expression in BMP4-treated cells: decreased WT1 expression

## NC(=O)c1ccc(-c2nc(-c3ccc4c(c3)OCO4)c(-c3ccccn3)[nH]2)cc1 [SB431542, reference compound]
hESC-derived mesoderm [2]
  cardiomyocyte development in presence of Wnt and activin/nodal/TGFβ inhibitor: cardiomyocytes routinely develop

## Cc1ccc2nc(NC(=O)CSc3nc4c(c(=O)n3-c3ccccc3)SCC4)sc2c1 [IWP2, reference compound]
hESC-derived mesoderm [1]; qRT-PCR day 15
  WT1 expression in BMP4-treated cells: decreased WT1 expression

## Cc1c[nH]c(-c2cnc(NCCNc3ccc(C#N)cn3)nc2-c2ccc(Cl)cc2Cl)n1 [CHIR99021, reference compound]
hESC-derived mesoderm [2]; Wnt activation in presence of dorsomorphin
  cardiomyocyte development in DM-treated cultures: unaffected
hESC-derived mesoderm [2]; Wnt activation, no BMP pathway regulators
  cardiomyocyte development in the endogenous BMP control: inhibited cardiomyocyte development
hESC-derived mesoderm [1]; qRT-PCR day 15
  WT1 expression in DM treated cultures: no change in WT1 expression
  WT1 expression in the endogenous BMP population: increased levels
  WT1 expression in BMP4-treated cells: did not impact WT1 expression

B1: Bone Morphogenetic Protein 4 (protein, UniProt P12644 293-408, looked up)
Bone morphogenetic protein 4: SPKHHSQRARKKNKNCRRHSLYVDFSDVGWNDWIVAPPGYQAFYCHGDCPFPLADHLNSTNHAIVQTLVNSVNSSIPKACCVPTELSAISMLYLDEYDKVVLKNYQEMVVEGCGCR
notes: Bone Morphogenetic Protein 4, human BMP4 (R&D Systems)
hESC-derived mesoderm [2]
  cardiomyocyte development / specification: completely blocked cardiomyocyte development
hESC-derived mesoderm [2]; [3]
  concentrations that inhibited cardiomyocyte specification: ≥ 0.63 ng/mL
  low levels at which cardiomyocyte development is achieved: 0.31 ng/mL
hESC-derived mesoderm [1]; day 15 of culture
  WT1 (nuclear) by immunostaining: detected only in cells induced with BMP4
hESC-derived mesoderm [1]; [4]
  TBX18 expression: predominantly
  WT1 expression: exclusively
hESC-derived mesoderm [1]; qRT-PCR, cells from treated mesoderm
  BNC1 and ANXA8 expression: highly expressed

B2: DKK1 (protein, UniProt O94907 32-266, looked up)
Dickkopf-related protein 1: TLNSVLNSNAIKNLPPPLGGAAGHPGSAVSAAPGILYPGGNKYQTIDNYQPYPCAEDEECGTDEYCASPTRGGDAGVQICLACRKRRKRCMRHAMCCPGNYCKNGICVSSDQNHFRGEIEETITESFGNDHSTLDGYSRRTTLSSKMYHTKGQEGSVCLRSSDCASGLCCARHFWSKICKPVLKEGQVCTKHRRKGSHGLEIFQRCYCGEGLSCRIQKDHHQASNSSRLHTCQRH
hESC-derived mesoderm [2]
  cardiomyocyte development in presence of Wnt and activin/nodal/TGFβ inhibitor: cardiomyocytes routinely develop

B3: noggin (protein, UniProt Q13253 28-232, looked up)
Noggin: QHYLHIRPAPSDNLPLVDLIEHPDPIFDPKEKDLNETLLRSLLGGHYDPGFMATSPPEDRPGGGGGAAGGAEDLAELDQLLRQRPSGAMPSEIKGLEFSEGLAQGKKQRLSKKLRRKLQMWLWSQTFCPVLYAWNDLGSRFWPRYVKVGSCFSKRSCSVPEGMVCKPSKSVHLTVLRWRCQRRGGQRCGWIPIQYPIISECKCSC
hESC-derived mesoderm [2]
  cardiomyocyte development / specification: completely blocked cardiomyocyte development; also recorded: inhibited cardiomyocyte specification
hESC-derived mesoderm [2]; flow cytometry after treatment of day 4 mesoderm
  levels of KDR (mesoderm development): decrease the levels of KDR to some extent
hESC-derived mesoderm [2]; [3]
  low levels at which cardiomyocyte development is achieved: 12.5 to 200 ng/mL
hESC-derived mesoderm [1]; qRT-PCR, 6-15 day time course
  expression of panel of myocardial and epicardial genes: did not express significant levels of any of these genes
